According to publication PMC9418327, “Specificity of the Hox member Deformed is determined by transcription factor levels and binding site affinities”:

Key:
[1] = target: T1, Dfd (Deformed);Exd (Extradenticle) (Drosophila melanogaster?;Drosophila …, UniProt P07548;P40427 1-586;1-376, |); assay: EMSA; Hth presence not stated; review file prints 6.85 and 6.65; 20 mM HEPES pH 7.9, 1.4 mM MgCl2, 1 mM ZnSO4, 40 mM KCl, 0.1 mM EGTA, 5% glycerol, 10 mM DTT, 0.1% NP40, 200 ng poly(dI-dC), 3 ug BSA, 2 pmol Cy5 dsDNA in 30 ul, on ice 20 min; 1% agarose-TBE gel at 4 C; settings: protein: recombinant;recombinant; tags: GST (pGEX-6P);His-myc; copies: 1;1; label: 5'-Cy5; blunt
T1 sequence (P07548 whole entry, chain 1 of 2): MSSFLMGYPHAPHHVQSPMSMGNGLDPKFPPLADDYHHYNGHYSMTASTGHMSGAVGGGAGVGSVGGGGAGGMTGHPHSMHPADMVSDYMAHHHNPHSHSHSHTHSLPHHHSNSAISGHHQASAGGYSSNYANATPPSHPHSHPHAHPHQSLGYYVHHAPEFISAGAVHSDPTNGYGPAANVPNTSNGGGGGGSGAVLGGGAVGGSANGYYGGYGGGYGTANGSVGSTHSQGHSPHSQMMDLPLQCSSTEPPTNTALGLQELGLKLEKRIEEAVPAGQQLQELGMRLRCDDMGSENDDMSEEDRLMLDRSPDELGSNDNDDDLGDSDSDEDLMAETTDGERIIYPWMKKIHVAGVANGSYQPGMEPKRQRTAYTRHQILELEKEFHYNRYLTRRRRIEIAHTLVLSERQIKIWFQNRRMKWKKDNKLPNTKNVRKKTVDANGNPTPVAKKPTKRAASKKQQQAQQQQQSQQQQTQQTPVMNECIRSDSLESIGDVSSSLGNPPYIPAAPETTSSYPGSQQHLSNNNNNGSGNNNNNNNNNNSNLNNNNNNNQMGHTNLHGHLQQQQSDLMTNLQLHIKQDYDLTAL
T1 sequence (P40427 whole entry, chain 2 of 2): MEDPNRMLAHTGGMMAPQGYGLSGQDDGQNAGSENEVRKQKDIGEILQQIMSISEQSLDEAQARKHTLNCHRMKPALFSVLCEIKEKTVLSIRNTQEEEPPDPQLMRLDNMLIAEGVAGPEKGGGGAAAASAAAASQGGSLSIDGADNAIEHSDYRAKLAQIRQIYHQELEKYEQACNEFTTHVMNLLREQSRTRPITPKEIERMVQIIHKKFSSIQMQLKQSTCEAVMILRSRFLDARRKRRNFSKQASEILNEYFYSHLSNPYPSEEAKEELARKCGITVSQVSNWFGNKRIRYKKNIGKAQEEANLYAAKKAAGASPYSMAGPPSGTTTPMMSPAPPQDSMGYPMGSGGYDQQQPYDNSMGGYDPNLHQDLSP

[2] = target: T2, Dfd (Deformed);Exd (Extradenticle);Hth (Homothorax) (Drosophila melanogaster?;Drosophila …, UniProt P07548;P40427;O46339 1-586;1-376;1-487, ||); assay: EMSA; 20 mM HEPES pH 7.9, 1.4 mM MgCl2, 1 mM ZnSO4, 40 mM KCl, 0.1 mM EGTA, 5% glycerol, 10 mM DTT, 0.1% NP40, 200 ng poly(dI-dC), 3 ug BSA, 2 pmol Cy5 dsDNA in 30 ul, on ice 20 min; 1% agarose-TBE gel at 4 C; settings: protein: recombinant;recombinant;recombinant; tags: GST (pGEX-6P);His-myc;His-Flag; copies: 1;1;1; label: 5'-Cy5; blunt
T2 sequence (P07548 whole entry, chain 1 of 3): as the sequence (P07548 whole entry, chain 1 of 2) above
T2 sequence (P40427 whole entry, chain 2 of 3): as the sequence (P40427 whole entry, chain 2 of 2) above
T2 sequence (O46339 whole entry, chain 3 of 3): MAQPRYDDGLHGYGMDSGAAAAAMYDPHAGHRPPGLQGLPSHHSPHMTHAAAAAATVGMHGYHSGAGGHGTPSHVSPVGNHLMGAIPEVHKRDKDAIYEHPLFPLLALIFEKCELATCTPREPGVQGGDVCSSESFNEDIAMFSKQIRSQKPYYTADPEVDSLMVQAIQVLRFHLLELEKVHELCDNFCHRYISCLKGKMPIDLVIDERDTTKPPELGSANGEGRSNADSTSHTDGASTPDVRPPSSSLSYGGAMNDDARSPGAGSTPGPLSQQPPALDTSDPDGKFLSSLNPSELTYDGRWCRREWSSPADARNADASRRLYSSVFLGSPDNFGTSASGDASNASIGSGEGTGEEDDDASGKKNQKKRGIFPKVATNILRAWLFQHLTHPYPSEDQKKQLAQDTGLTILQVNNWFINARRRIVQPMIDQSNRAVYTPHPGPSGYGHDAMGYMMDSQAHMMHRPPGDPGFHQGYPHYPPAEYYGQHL

[3] = target: T2, Dfd (Deformed);Exd (Extradenticle);Hth …; assay: EMSA; binding abolished when all sites mutated; 20 mM HEPES pH 7.9, 1.4 mM MgCl2, 1 mM ZnSO4, 40 mM KCl, 0.1 mM EGTA, 5% glycerol, 10 mM DTT, 0.1% NP40, 200 ng poly(dI-dC), 3 ug BSA, 2 pmol Cy5 dsDNA in 30 ul, on ice 20 min; 1% agarose-TBE gel at 4 C; settings: protein: recombinant;recombinant;recombinant; tags: GST (pGEX-6P);His-myc;His-Flag; copies: 1;1;1; label: 5'-Cy5; blunt
[4] = target: T1, Dfd (Deformed);Exd (Extradenticle); assay: EMSA; Hth presence not given; 20 mM HEPES pH 7.9, 1.4 mM MgCl2, 1 mM ZnSO4, 40 mM KCl, 0.1 mM EGTA, 5% glycerol, 10 mM DTT, 0.1% NP40, 200 ng poly(dI-dC), 3 ug BSA, 2 pmol Cy5 dsDNA in 30 ul, on ice 20 min; 1% agarose-TBE gel at 4 C; settings: protein: recombinant;recombinant; tags: GST (pGEX-6P);His-myc; copies: 1;1; label: 5'-Cy5; blunt

| Binder | binding result [2] | Kd [4] [nM] | also measured |
| --- | --- | --- | --- |
| oligo-E-11-H (dsDNA) DNA 1: CTTCTTCGGATGATTAATGACGCGCGTTCAACAT DNA 2: ATGTTGAACGCGCGTCATTAATCATCCGAAGAAG | – | – | Kd [1]: 6.7 nM |
| oligo-A-wt (site 1) (dsDNA) DNA 1: TCTCAGCCTCGATAATTAACACACAAGCGCGGGG DNA 2: CCCCGCGCTTGTGTGTTAATTATCGAGGCTGAGA | binds | – | – |
| oligo-B-12-mt (dsDNA) DNA 1: GACCGCAGAACCAAGCCGCCTATTGCCAGTGAAT DNA 2: ATTCACTGGCAATAGGCGGCTTGGTTCTGCGGTC | – | – | binding result [3]: no binding |
| oligo-D-1-mt-2-H (D-9mut-10H) (dsDNA) DNA 1: TATAAAAGGCGGCATTGATTAATTAATTCTCGAT DNA 2: ATCGAGAATTAATTAATCAATGCCGCCTTTTATA | – | 8.16 | – |
| oligo-E-wt (site 11) (dsDNA) DNA 1: CTTCTTCGGGCACCTAATGACGCGCGTTCAACAT DNA 2: ATGTTGAACGCGCGTCATTAGGTGCCCGAAGAAG | binds | 16.8 | – |
| oligo-class-2-site (dsDNA) DNA 1: TTCAGAGCGAATGATTAATGATCGGTCAAG DNA 2: CTTGACCGATCATTAATCATTCGCTCTGAA | – | 9.12 | – |
| oligo-D-1-mt (D-9mut-10wt) (dsDNA) DNA 1: TATAAAAGGCGGCAAATACTAATCTATTCTCGAT DNA 2: ATCGAGAATAGATTAGTATTTGCCGCCTTTTATA | – | 16.9 | – |
| oligo-D-wt (sites 9, 10) (dsDNA) DNA 1: TATAAAAGCCATTAAATACTAATCTATTCTCGAT DNA 2: ATCGAGAATAGATTAGTATTTAATGGCTTTTATA | binds | – | – |
